Patent US20070105796

Target: HSP27 (small heat shock protein 27), P04792
Sequence (P04792 whole entry): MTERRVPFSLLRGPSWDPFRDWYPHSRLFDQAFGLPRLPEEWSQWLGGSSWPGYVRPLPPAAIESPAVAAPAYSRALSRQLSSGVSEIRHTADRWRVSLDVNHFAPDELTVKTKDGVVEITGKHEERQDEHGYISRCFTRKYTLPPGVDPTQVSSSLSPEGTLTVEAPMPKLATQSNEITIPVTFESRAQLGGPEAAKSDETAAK

Protein	kinase activity (immune-complex kinase assay, phosphorylation of HSP27)	kinase activity (phosphorylation of HSP27 with [gamma-32P]ATP, autoradiography)
N-terminal HA-tagged inactive MAPKAPK3 (T201A/T313A) (protein) MDGETAEEQGGPVPPPVAPGGPGLGGAPGGRREPKKYAVTDDYQLSKQVLGLGVNGKVLECFHRRTGQKCALKLLYDSPKARQEVDHHWQASGGPHIVCILDVYENMHHGKRCLLIIMECMEGGELFSRIQERGDQAFTEREAAEIMRDIGTAIQFLHSHNIAHRDVKPENLLYTSKEKDAVLKLTDFGFAKETTQNALQAPCYTPYYVAPEVLGPEKYDKSCDMWSLGVIMYILLCGFPPFYSNTGQAISPGMKRRIRLGQYGFPNPEWSEVSEDAKQLIRLLLKTDPTERLTITQFMNHPWINQSMVVPQAPLHTARVLQEDKDHWDEVKEEMTSALATMRVDYDQVKIKDLKTSNNRLLNKRRKKQAGSSSASQGCNNQ	the kinase activity was observed only in an active MAPKAPK3	
GST fusion inactive MAPKAPK3 (T201A/T313A) (protein) MDGETAEEQGGPVPPPVAPGGPGLGGAPGGRREPKKYAVTDDYQLSKQVLGLGVNGKVLECFHRRTGQKCALKLLYDSPKARQEVDHHWQASGGPHIVCILDVYENMHHGKRCLLIIMECMEGGELFSRIQERGDQAFTEREAAEIMRDIGTAIQFLHSHNIAHRDVKPENLLYTSKEKDAVLKLTDFGFAKETTQNALQAPCYTPYYVAPEVLGPEKYDKSCDMWSLGVIMYILLCGFPPFYSNTGQAISPGMKRRIRLGQYGFPNPEWSEVSEDAKQLIRLLLKTDPTERLTITQFMNHPWINQSMVVPQAPLHTARVLQEDKDHWDEVKEEMTSALATMRVDYDQVKIKDLKTSNNRLLNKRRKKQAGSSSASQGCNNQ		the kinase activity was observed only in an active MAPKAPK3
N-terminal HA-tagged active MAPKAPK3 (T201E/T313E) (protein) MDGETAEEQGGPVPPPVAPGGPGLGGAPGGRREPKKYAVTDDYQLSKQVLGLGVNGKVLECFHRRTGQKCALKLLYDSPKARQEVDHHWQASGGPHIVCILDVYENMHHGKRCLLIIMECMEGGELFSRIQERGDQAFTEREAAEIMRDIGTAIQFLHSHNIAHRDVKPENLLYTSKEKDAVLKLTDFGFAKETTQNALQEPCYTPYYVAPEVLGPEKYDKSCDMWSLGVIMYILLCGFPPFYSNTGQAISPGMKRRIRLGQYGFPNPEWSEVSEDAKQLIRLLLKTDPTERLTITQFMNHPWINQSMVVPQEPLHTARVLQEDKDHWDEVKEEMTSALATMRVDYDQVKIKDLKTSNNRLLNKRRKKQAGSSSASQGCNNQ	the kinase activity was observed only in an active MAPKAPK3	
GST fusion MAPKAPK3 (N-terminal GST fusion human MAPKAPK3) (protein) MDGETAEEQGGPVPPPVAPGGPGLGGAPGGRREPKKYAVTDDYQLSKQVLGLGVNGKVLECFHRRTGQKCALKLLYDSPKARQEVDHHWQASGGPHIVCILDVYENMHHGKRCLLIIMECMEGGELFSRIQERGDQAFTEREAAEIMRDIGTAIQFLHSHNIAHRDVKPENLLYTSKEKDAVLKLTDFGFAKETTQNALQTPCYTPYYVAPEVLGPEKYDKSCDMWSLGVIMYILLCGFPPFYSNTGQAISPGMKRRIRLGQYGFPNPEWSEVSEDAKQLIRLLLKTDPTERLTITQFMNHPWINQSMVVPQTPLHTARVLQEDKDHWDEVKEEMTSALATMRVDYDQVKIKDLKTSNNRLLNKRRKKQAGSSSASQGCNNQ		the kinase activity was observed only in an active MAPKAPK3
GST fusion active MAPKAPK3 (T201E/T313E) (protein) MDGETAEEQGGPVPPPVAPGGPGLGGAPGGRREPKKYAVTDDYQLSKQVLGLGVNGKVLECFHRRTGQKCALKLLYDSPKARQEVDHHWQASGGPHIVCILDVYENMHHGKRCLLIIMECMEGGELFSRIQERGDQAFTEREAAEIMRDIGTAIQFLHSHNIAHRDVKPENLLYTSKEKDAVLKLTDFGFAKETTQNALQEPCYTPYYVAPEVLGPEKYDKSCDMWSLGVIMYILLCGFPPFYSNTGQAISPGMKRRIRLGQYGFPNPEWSEVSEDAKQLIRLLLKTDPTERLTITQFMNHPWINQSMVVPQEPLHTARVLQEDKDHWDEVKEEMTSALATMRVDYDQVKIKDLKTSNNRLLNKRRKKQAGSSSASQGCNNQ		the kinase activity was observed only in an active MAPKAPK3
N-terminal HA-tagged MAPKAPK3 (protein) MDGETAEEQGGPVPPPVAPGGPGLGGAPGGRREPKKYAVTDDYQLSKQVLGLGVNGKVLECFHRRTGQKCALKLLYDSPKARQEVDHHWQASGGPHIVCILDVYENMHHGKRCLLIIMECMEGGELFSRIQERGDQAFTEREAAEIMRDIGTAIQFLHSHNIAHRDVKPENLLYTSKEKDAVLKLTDFGFAKETTQNALQTPCYTPYYVAPEVLGPEKYDKSCDMWSLGVIMYILLCGFPPFYSNTGQAISPGMKRRIRLGQYGFPNPEWSEVSEDAKQLIRLLLKTDPTERLTITQFMNHPWINQSMVVPQTPLHTARVLQEDKDHWDEVKEEMTSALATMRVDYDQVKIKDLKTSNNRLLNKRRKKQAGSSSASQGCNNQ	the kinase activity was observed only in an active MAPKAPK3	
